Columns and labels:
[1] = system: PPIs of the SKEMPI data set (by PDBID); conditions: single mutation to alanine, ref SKEMPI, cited from earlier work; for sk_ddG_kJ (SKEMPI experimental ΔΔG): residue group SQNT; for sk_ddG_kJ: SKEMPI experimental ΔΔG of binding, complex by PDBID
[2] = system: PPIs of the SKEMPI data set (by PDBID); experiment: SKEMPI experimental ΔΔG, single mutations to alanine; type: binding; conditions: class of the SKEMPI experimental ΔΔG

Row | Molecule | sk_ddG_kJ (SKEMPI experimental ΔΔG) ([1]; complex given by PDBID) | sk_class [2] | sk_ddG_kJ (SKEMPI experimental ΔΔG, mutation to alanine) ([1]; complex given by PDBID, chain and residue by mut_pdb) | sk_class ([2]; ref SKEMPI) | sk_ddG_kJ [1]
1 | 1EMV SA29A (protein, UniProt P13479 1-86, looked up, variant S29A) Colicin-E9 immunity protein: MELKHSISDYTEAEFLQLVTTICNADTSAEEELVKLVTHFEEMTEHPSGSDLIYYPKEGDDDSPSGIVNTVKQWRAANGKSGFKQG | 4.02 kJ | Neutral (neutral (little effect) 4.184 kJ/mol < ΔΔG > −4.184 kJ/mol) |  |  | 
2 | 1EMV NA69A (protein, UniProt P13479 1-86, looked up, variant N69A) Colicin-E9 immunity protein: MELKHSISDYTEAEFLQLVTTICNADTSSEEELVKLVTHFEEMTEHPSGSDLIYYPKEGDDDSPSGIVATVKQWRAANGKSGFKQG | 1.17 kJ | Neutral (neutral (little effect) 4.184 kJ/mol < ΔΔG > −4.184 kJ/mol) |  |  | 
3 | 1EMV SA48A (protein, UniProt P13479 1-86, looked up, variant S48A) Colicin-E9 immunity protein: MELKHSISDYTEAEFLQLVTTICNADTSSEEELVKLVTHFEEMTEHPAGSDLIYYPKEGDDDSPSGIVNTVKQWRAANGKSGFKQG | 0.04 kJ | Neutral (neutral (little effect) 4.184 kJ/mol < ΔΔG > −4.184 kJ/mol) |  |  | 
4 | 1EMV SA50A (protein, UniProt P13479 1-86, looked up, variant S50A) Colicin-E9 immunity protein: MELKHSISDYTEAEFLQLVTTICNADTSSEEELVKLVTHFEEMTEHPSGADLIYYPKEGDDDSPSGIVNTVKQWRAANGKSGFKQG | 9.16 kJ | Positive (positive (a hot residue) ΔΔG ≥ 4.184 kJ/mol) |  |  | 
5 | 1EMV SA63A (protein, UniProt P13479 1-86, looked up, variant S63A) Colicin-E9 immunity protein: MELKHSISDYTEAEFLQLVTTICNADTSSEEELVKLVTHFEEMTEHPSGSDLIYYPKEGDDDAPSGIVNTVKQWRAANGKSGFKQG | 3.64 kJ | Neutral (neutral (little effect) 4.184 kJ/mol < ΔΔG > −4.184 kJ/mol) |  |  | 
6 | 1EMV TA44A (protein, UniProt P13479 1-86, looked up, variant T44A) Colicin-E9 immunity protein: MELKHSISDYTEAEFLQLVTTICNADTSSEEELVKLVTHFEEMAEHPSGSDLIYYPKEGDDDSPSGIVNTVKQWRAANGKSGFKQG | 1.26 kJ | Neutral (neutral (little effect) 4.184 kJ/mol < ΔΔG > −4.184 kJ/mol) |  |  | 
7 | 2WPT SA50A (protein, UniProt P04482 1-86, looked up, variant S50A) Colicin-E2 immunity protein: MELKHSISDYTEAEFLEFVKKICRAEGATEEDDNKLVREFERLTEHPDGADLIYYPRDDREDSPEGIVKEIKEWRAANGKSGFKQG |  |  | 10.04 kJ | Positive (positive (a hot residue) ΔΔG ≥ 4.184 kJ/mol) | 
8 | 1AHW DC178A (protein, UniProt P13726 33-251, looked up, variant D178A, extracellular domain) extracellular domain: SGTTNTVAAYNLTWKSTNFKTILEWEPKPVNQVYTVQISTKSGDWKSKCFYTTDTECDLTDEIVKDVKQTYLARVFSYPAGNVESTGSAGEPLYENSPEFTPYLETNLGQPTIQSFEQVGTKVNVTVEDERTLVRRNNTFLSLRDVFGKDLIYTLYYWKSSSSGKKTAKTNTNEFLIAVDKGENYCFSVQAVIPSRTVNRKSTDSPVECMGQEKGEFRE |  |  |  | Neutral (neutral (little effect) 4.184 kJ/mol < ΔΔG > −4.184 kJ/mol) | -2.01 kJ
9 | 1DAN KT48A (protein, UniProt P13726 33-251, looked up, variant K48A, extracellular domain) extracellular domain: SGTTNTVAAYNLTWKSTNFKTILEWEPKPVNQVYTVQISTKSGDWKSACFYTTDTECDLTDEIVKDVKQTYLARVFSYPAGNVESTGSAGEPLYENSPEFTPYLETNLGQPTIQSFEQVGTKVNVTVEDERTLVRRNNTFLSLRDVFGKDLIYTLYYWKSSSSGKKTAKTNTNEFLIDVDKGENYCFSVQAVIPSRTVNRKSTDSPVECMGQEKGEFRE |  |  |  | Neutral (neutral (little effect) 4.184 kJ/mol < ΔΔG > −4.184 kJ/mol) | 1.76 kJ
10 | 1DAN ET26A (protein, UniProt P13726 33-251, looked up, variant E26A, extracellular domain) extracellular domain: SGTTNTVAAYNLTWKSTNFKTILEWAPKPVNQVYTVQISTKSGDWKSKCFYTTDTECDLTDEIVKDVKQTYLARVFSYPAGNVESTGSAGEPLYENSPEFTPYLETNLGQPTIQSFEQVGTKVNVTVEDERTLVRRNNTFLSLRDVFGKDLIYTLYYWKSSSSGKKTAKTNTNEFLIDVDKGENYCFSVQAVIPSRTVNRKSTDSPVECMGQEKGEFRE |  |  |  | Neutral (neutral (little effect) 4.184 kJ/mol < ΔΔG > −4.184 kJ/mol) | 0.46 kJ
11 | 1DAN KT15A (protein, UniProt P13726 33-251, looked up, variant K15A, extracellular domain) extracellular domain: SGTTNTVAAYNLTWASTNFKTILEWEPKPVNQVYTVQISTKSGDWKSKCFYTTDTECDLTDEIVKDVKQTYLARVFSYPAGNVESTGSAGEPLYENSPEFTPYLETNLGQPTIQSFEQVGTKVNVTVEDERTLVRRNNTFLSLRDVFGKDLIYTLYYWKSSSSGKKTAKTNTNEFLIDVDKGENYCFSVQAVIPSRTVNRKSTDSPVECMGQEKGEFRE |  |  |  | Neutral (neutral (little effect) 4.184 kJ/mol < ΔΔG > −4.184 kJ/mol) | -1.63 kJ
12 | 1DAN KT46A (protein, UniProt P13726 33-251, looked up, variant K46A, extracellular domain) extracellular domain: SGTTNTVAAYNLTWKSTNFKTILEWEPKPVNQVYTVQISTKSGDWASKCFYTTDTECDLTDEIVKDVKQTYLARVFSYPAGNVESTGSAGEPLYENSPEFTPYLETNLGQPTIQSFEQVGTKVNVTVEDERTLVRRNNTFLSLRDVFGKDLIYTLYYWKSSSSGKKTAKTNTNEFLIDVDKGENYCFSVQAVIPSRTVNRKSTDSPVECMGQEKGEFRE |  |  |  | Neutral (neutral (little effect) 4.184 kJ/mol < ΔΔG > −4.184 kJ/mol) | 1.00 kJ
13 | 1DAN KT28A (protein, UniProt P13726 33-251, looked up, variant K28A, extracellular domain) extracellular domain: SGTTNTVAAYNLTWKSTNFKTILEWEPAPVNQVYTVQISTKSGDWKSKCFYTTDTECDLTDEIVKDVKQTYLARVFSYPAGNVESTGSAGEPLYENSPEFTPYLETNLGQPTIQSFEQVGTKVNVTVEDERTLVRRNNTFLSLRDVFGKDLIYTLYYWKSSSSGKKTAKTNTNEFLIDVDKGENYCFSVQAVIPSRTVNRKSTDSPVECMGQEKGEFRE |  |  |  | Neutral (neutral (little effect) 4.184 kJ/mol < ΔΔG > −4.184 kJ/mol) | 0.50 kJ
14 | 1DAN KT20A (protein, UniProt P13726 33-251, looked up, variant K20A, extracellular domain) extracellular domain: SGTTNTVAAYNLTWKSTNFATILEWEPKPVNQVYTVQISTKSGDWKSKCFYTTDTECDLTDEIVKDVKQTYLARVFSYPAGNVESTGSAGEPLYENSPEFTPYLETNLGQPTIQSFEQVGTKVNVTVEDERTLVRRNNTFLSLRDVFGKDLIYTLYYWKSSSSGKKTAKTNTNEFLIDVDKGENYCFSVQAVIPSRTVNRKSTDSPVECMGQEKGEFRE |  |  |  | Positive (positive (a hot residue) ΔΔG ≥ 4.184 kJ/mol) | 10.21 kJ
15 | 1DAN EU99A (protein, UniProt P13726 33-251, looked up, variant E99A, extracellular domain) extracellular domain: SGTTNTVAAYNLTWKSTNFKTILEWEPKPVNQVYTVQISTKSGDWKSKCFYTTDTECDLTDEIVKDVKQTYLARVFSYPAGNVESTGSAGEPLYENSPAFTPYLETNLGQPTIQSFEQVGTKVNVTVEDERTLVRRNNTFLSLRDVFGKDLIYTLYYWKSSSSGKKTAKTNTNEFLIDVDKGENYCFSVQAVIPSRTVNRKSTDSPVECMGQEKGEFRE |  |  |  | Neutral (neutral (little effect) 4.184 kJ/mol < ΔΔG > −4.184 kJ/mol) | -0.75 kJ
16 | 1DAN ET24A (protein, UniProt P13726 33-251, looked up, variant E24A, extracellular domain) extracellular domain: SGTTNTVAAYNLTWKSTNFKTILAWEPKPVNQVYTVQISTKSGDWKSKCFYTTDTECDLTDEIVKDVKQTYLARVFSYPAGNVESTGSAGEPLYENSPEFTPYLETNLGQPTIQSFEQVGTKVNVTVEDERTLVRRNNTFLSLRDVFGKDLIYTLYYWKSSSSGKKTAKTNTNEFLIDVDKGENYCFSVQAVIPSRTVNRKSTDSPVECMGQEKGEFRE |  |  |  | Neutral (neutral (little effect) 4.184 kJ/mol < ΔΔG > −4.184 kJ/mol) | 2.76 kJ
17 | 1DAN DT44A (protein, UniProt P13726 33-251, looked up, variant D44A, extracellular domain) extracellular domain: SGTTNTVAAYNLTWKSTNFKTILEWEPKPVNQVYTVQISTKSGAWKSKCFYTTDTECDLTDEIVKDVKQTYLARVFSYPAGNVESTGSAGEPLYENSPEFTPYLETNLGQPTIQSFEQVGTKVNVTVEDERTLVRRNNTFLSLRDVFGKDLIYTLYYWKSSSSGKKTAKTNTNEFLIDVDKGENYCFSVQAVIPSRTVNRKSTDSPVECMGQEKGEFRE |  |  |  | Positive (positive (a hot residue) ΔΔG ≥ 4.184 kJ/mol) | 10.00 kJ
18 | 1DAN KT41A (protein, UniProt P13726 33-251, looked up, variant K41A, extracellular domain) extracellular domain: SGTTNTVAAYNLTWKSTNFKTILEWEPKPVNQVYTVQISTASGDWKSKCFYTTDTECDLTDEIVKDVKQTYLARVFSYPAGNVESTGSAGEPLYENSPEFTPYLETNLGQPTIQSFEQVGTKVNVTVEDERTLVRRNNTFLSLRDVFGKDLIYTLYYWKSSSSGKKTAKTNTNEFLIDVDKGENYCFSVQAVIPSRTVNRKSTDSPVECMGQEKGEFRE |  |  |  | Neutral (neutral (little effect) 4.184 kJ/mol < ΔΔG > −4.184 kJ/mol) | 1.38 kJ
19 | 1DAN DT58A (protein, UniProt P13726 33-251, looked up, variant D58A, extracellular domain) extracellular domain: SGTTNTVAAYNLTWKSTNFKTILEWEPKPVNQVYTVQISTKSGDWKSKCFYTTDTECALTDEIVKDVKQTYLARVFSYPAGNVESTGSAGEPLYENSPEFTPYLETNLGQPTIQSFEQVGTKVNVTVEDERTLVRRNNTFLSLRDVFGKDLIYTLYYWKSSSSGKKTAKTNTNEFLIDVDKGENYCFSVQAVIPSRTVNRKSTDSPVECMGQEKGEFRE |  |  |  | Positive (positive (a hot residue) ΔΔG ≥ 4.184 kJ/mol) | 8.37 kJ
